The target in assay [1] is T1, Large subunit (LSU) of Synechococcus elongatus PCC7942 Rubisco (Synechococcus elongatus PCC7942, UniProt Q31NB3 1-472).
T1 construct: also called cyanobacterial LSU; Se LSU
Put plainly: native PAGE with Coomassie stain and immunoblots. A general note: Immunoblotting shows a protein as a band on a membrane.

The target in assay [2] is T2, Rubisco from the cyanobacterium Synechococcus elongatus PCC7942 (hexadecameric holoenzyme of eight LSU and … (Synechococcus elongatus PCC7942, UniProt Q31NB3 1-472; Q31NB2 1-111).
T2 construct: also called Se7942 Rubisco; cyanobacterial Rubisco
Put plainly: quantitative immunoblots of SeLSM35 leaf homogenates against purified protein standards. An excerpt: SDS page, immunoblot and determination of CcmM35/Rubisco content. The crude leaf homogenates used in the carboxylase activity measurements were separated by SDS-PAGE using 4-20% polyacrylamide gradient gels (ThermoScientific, UK). For each sample, the same amount of protein, as determined by Bradford assay, was loaded onto the gel. After electrophoresis, the resolved proteins were transferred to a nitrocellulose membrane (Hybond-C Extra from GE Healthcare Life Sciences) using a western blot apparatus. The nitrocellulose membranes were immunoblotted using one of four primary polyclonal antibodies raised against: cyanobacterial (SePCC6301) Rubisco; tobaccoRubisco; the small subunit of tobacco Rubisco; and CcmM from Se PCC7942. The primary polyclonal antibody to detect CcmM35 was generated in rabbit with His-tagged CcmM58 protein purified from E. coli (Cambridge Research Biochemicals, UK) and used at a dilution of 1:500 in the immunoblots and from 1:500 to 1:2,000 for immunogold labelling, and was highly specific for CcmM (FIG. 2a). The primary antibodies were visualized by means of a secondary goat anti-rabbit peroxidase-conjugated antibody (Sigma). The absolute and relative content of Synechococcus Rubisco and CcmM35 in SeLSM35 leaves were determined using immunoblots with antibodies against CcmM and cyanobacterial Rubisco. […]

B1: Small subunit (SSU) of Synechococcus elongatus PCC7942 Rubisco (enzyme, UniProt Q31NB2 1-111, looked up)
chain: MSMKTLPKERRFETFSYLPPLSDRQIAAQIEYMIEQGFHPLIEFNEHSNPEEFYWTMWKLPLFDCKSPQQVLDEVRECRSEYGDCYIRVAGFDNIKQCQTVSFIVHRPGRY
notes: also called cyanobacterial SSU; Se-rbcS product
On to B1, for which the binding result in assay [1] is “binds”.

B2: CcmM35, internal carboxysomal protein of Synechococcus elongatus PCC7942 (other, UniProt Q03513-2 1-324, looked up)
chain: MSAYNGQGRLSSEVITQVRSLLNQGYRIGTEHADKRRFRTSSWQPCAPIQSTNERQVLSELENCLSEHEGEYVRLLGIDTNTRSRVFEALIQRPDGSVPESLGSQPVAVASGGGRQSSYASVSGNLSAEVVNKVRNLLAQGYRIGTEHADKRRFRTSSWQSCAPIQSSNERQVLAELENCLSEHEGEYVRLLGIDTASRSRVFEALIQDPQGPVGSAKAAAAPVSSATPSSHSYTSNGSSSSDVAGQVRGLLAQGYRISAEVADKRRFQTSSWQSLPALSGQSEATVLPALESILQEHKGKYVRLIGIDPAARRRVAELLIQKP
notes: domain: CcmM35; CcmM35 lacks the amino-terminal domain; Untagged as expressed in the SeLSM35 tobacco line; also called Se-ccmM35 product
With B2, the “stoichiometry of CcmM35 per Rubisco holoenzyme” value in assay [2] is ~4.5 CcmM35 per Rubisco holoenzyme.
